Reference: publication PMC4475061
Values belong to the binder of their own block, whether it stands above or below them.

Tests used:
[1] = target: T1, ULK3 fused to the VP16 activation domain, Q6PHR2; assay: yeast two-hybrid (β-galactosidase activity); details: chain shown with the change;; parent: est. 0.66; read off a plot
T1 chain: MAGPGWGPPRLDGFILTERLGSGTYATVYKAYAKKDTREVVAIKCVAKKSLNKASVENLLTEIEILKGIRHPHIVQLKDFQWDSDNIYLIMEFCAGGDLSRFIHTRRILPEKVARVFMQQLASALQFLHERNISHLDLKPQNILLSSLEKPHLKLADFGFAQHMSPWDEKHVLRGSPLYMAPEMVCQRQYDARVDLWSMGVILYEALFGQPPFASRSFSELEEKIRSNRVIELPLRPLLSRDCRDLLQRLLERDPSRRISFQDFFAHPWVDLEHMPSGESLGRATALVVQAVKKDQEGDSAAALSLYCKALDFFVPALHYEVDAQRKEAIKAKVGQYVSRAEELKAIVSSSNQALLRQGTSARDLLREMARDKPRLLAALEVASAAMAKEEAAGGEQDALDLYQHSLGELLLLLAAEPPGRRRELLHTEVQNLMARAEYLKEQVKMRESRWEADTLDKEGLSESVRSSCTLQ

other ESCRT-III proteins = assay: fluorescence polarisation; data not shown; other ESCRT-III proteins

response [1]: 0.5
B1: CHMP1B WT fused to the Gal4 DNA-binding domain, Q7LBR1 T178R; A181R; E184R (protein)
chain: MSNMEKHLFNLKFAAKELSRSAKKCDKEEKAEKAKIKKAIQKGNMEVARIHAENAIRQKNQAVNFLRMSARVDAVAARVQTAVTMGKVTKSMAGVVKSMDATLKTMNLEKISALMDKFEHQFETLDVQTQQMEDTMSSTTTLTTPQNQVDMLLQEMADEAGLDLNMELPQGQTGSVGRSVRSARQDELSQRLARLRDQV

Kd (other ESCRT-III proteins): 100 µM
B2: ULK3(MIT)2 (residues 277–449) (domain or fragment)
chain: GPHMSGESLGRATALVVQAVKKDQEGDSAAALSLYCKALDFFVPALHYEVDAQRKEAIKAKVGQYVSRAEELKAIVSSSNQALLRQGTSARDLLREMARDKPRLLAALEVASAAMAKEEAAGGEQDALDLYQHSLGELLLLLAAEPPGRRRELLHTEVQNLMARAEYLKEQVKMRES
